Molecular target: T1, GLP1R (Homo sapiens, UniProt P43220, A316G/L260F)
T1 construct: host or cells: HuTARG cells (engineered HEK293), subclone L696 / L696.19
Assay: cAMP-responsive CD19 surface reporter assay in HuTARG-L696 GLP1R reporter cell line (FACS)
Format: cell-based
Text: HuTARG™ cells, which are HEK293 cells engineered to be capable of de novo antibody generation, were used to generate the reporter cell line. HuTARG™ cells have been stably transfected with expression cassettes for RAG1 and RAG-2 and Tdt. RAG-1 expression is inducible as the gene has been placed downstream of a Tet inducible promoter. HuTARG™ cells have also been stably transfected with a plasmid containing a LoxP site for subsequent insertion of V(D)J substrates.
HuTARG™ cells were modified to express the GLP1 receptor as well as express a reporter gene that was activated by cAMP. […]
Depleted cells were subsequently expanded and depleted an additional time using the same protocol except using a Miltenyi LD magnetic column. […] Single cell clones confirmed to have minimal CD19 expression in the absence of ligand were evaluated for induction of CD19 in the presence of 10 nM Exendin and the L696 subclone was selected. […]
The peptide-grafted antibody, ITS007-V107, was subsequently cloned and expressed as a single-domain VH-IgG antibody without CH1 or a light chain and it was confirmed that the peptide-grafted heavy chain was functional in this format as well (FIG. 12). […]
ITS007-V125 was cloned into a secretion vector, expressed and purified. […] The next day, binding and the percentage of cells expressing the surface marker were determined by FACS.

T1 sequence (P43220 24-463 L260F/A316G): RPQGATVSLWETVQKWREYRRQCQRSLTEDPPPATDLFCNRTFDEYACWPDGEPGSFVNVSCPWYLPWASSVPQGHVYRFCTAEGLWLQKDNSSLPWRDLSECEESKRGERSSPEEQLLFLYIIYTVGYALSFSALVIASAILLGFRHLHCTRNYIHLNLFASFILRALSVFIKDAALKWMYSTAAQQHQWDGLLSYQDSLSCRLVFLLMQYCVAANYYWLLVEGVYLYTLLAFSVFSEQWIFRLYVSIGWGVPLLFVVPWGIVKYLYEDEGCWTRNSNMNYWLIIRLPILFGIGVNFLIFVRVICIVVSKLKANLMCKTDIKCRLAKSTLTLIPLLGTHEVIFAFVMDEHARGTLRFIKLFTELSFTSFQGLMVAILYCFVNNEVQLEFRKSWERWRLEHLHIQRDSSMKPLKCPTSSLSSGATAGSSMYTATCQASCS

## Exendin-4 [reference compound]
10 nM, 24 hours, L696 cell line
  induction of CD19 expression: CD19 expression is specifically induced
50 nM, 48 hours incubation with reporter line
  percentage of cells showing CD19 expression: approximately 8%

Source: US20160297883A1, “G-PROTEIN COUPLED RECEPTOR AGONISTS AND METHODS” (Innovative Targeting Solutions, Inc., priority 2013, published 2016)
